Data taken from publication doi:10.1101/2021.03.29.435803.

Molecular target: HA-FBXW7 (UniProt Q8VBV4)
Test: FLAG IP, HA immunoblot
Conditions: reference: wild type

Row | binding against the reference (sites T243,S247) | binding against the reference (sites T171,S175) | Substance
1 | weaker | – | KLF2 (from UniProt Q60843) 2A C (T243A/S247A)
2 | – | weaker | KLF2 (from UniProt Q60843) 2A N (T171A/S175A)
